Data as given in patent US8394929B2, “Nogo receptor-mediated blockade of axonal growth” (Yale University, priority 2000, dated 2013).

Experiments:
Format in all cases: cell-based
[1] = system: CNS myelin induced growth cone collapse; experiment: Blockade of CNS myelin induced growth cone collapse in chick DRG cultures
Procedure: In the growth cone collapse assay, the response to Nogo was measured in the presence of various potential antagonistic peptides. […] This blockade supports the hypothesis that Nogo is a primary inhibitory component of CNS myelin.
To determine the antagonistic activity of Peptide 140 against CNS myelin, the above synthetic peptide was added approximately 10 min before application of CNS myelin. 30 min later, cultures were fixed and growth cone collapse was assessed following staining with rhodamine-phalloidin. For neurite outgrowth assays, plastic chamber slide were coated with 100 μg ml^−1 poly-L-lysine, washed, and dried. 3 μl drops of PBS containing CNS myelin were spotted and dried. Slides were then rinsed and coated with 10 μg ml fs24^−1 laminin before addition of dissociated E12 chick DRGs. Peptide 140, or the scrambled version of Peptide 140, was added at the time of cell plating. Cultures were grown for 5-7 h after which neurite outgrowth was assessed.

[2] = system: NGF-differentiated PC12 cells; experiment: Axon outgrowth from NGF-differentiated PC12 cells
Procedure: For all experiments involving cell culture, the following methods were employed. The culture of embryonic chick E10 and E12 dorsal root ganglion explants and dissociated neurons utilized methods described for E7 dorsal root ganglion cultures (Takahashi et al., (1998) Nature Neurosci. 1, 487-493; Takahashi et al., (1999) Cell 99, 59-69; Goshima et al., (1995) Nature 376, 509-514; Jin & Strittmatter, (1997) J. Neurosci. 7, 6256-6263). NGF-differentiated PC12 cells were cultured as described (Strittmatter et al., (1994) J. Neurosci. 14, 2327-2338). Embryonic spinal cord explants (rat E10 or chick E5) were cultured for 7-14 days in the presence of PDGF-AA to induce differentiation of some cells into mature oligodendrocytes (Vartanian et al., (1999) Proc. Natl. Acad. Sci. USA 96, 731-735). The procedure for growth cone collapse assays is identical to that for analysis of Sema3A-induced growth cone collapse (Takahashi et al., (1998) Nature Neurosci. 1, 487-493; Takahashi et al., (1999) Cell 99, 59-69; Goshima et al., (1995) Nature 376, 509-514; Jin & Strittmatter, (1997) J. Neurosci. 17, 6256-6263). The method for analysis of total neurite outgrowth has also been described (Goshima et al., (1995) Nature 376, 509-514; Jin & Strittmatter, (1997) J. Neurosci. 17, 6256-6263; Strittmatter et al., (1994) J. Neurosci. 14, 2327-2338). […]

NgRL1 chimeric receptor = molecular target: T1, NgRL1 chimeric receptor (Mus musculus, UniProt P11627+Q99PI8); experiment: Growth cone collapse in E7 retinal ganglion cells infected with NgRL1
T1 construct: L1NgR encodes residues 1-451 of mouse NgR fused to the transmembrane and cytoplasmic tail of mouse L1; expressed in transfected cells; host or cells: chick E7 retinal ganglion cells infected with recombinant HSVL1NgR
Procedure: Growth cone collapse in response to GST-hNogo-A (1055-1120) was investigated in infected RGC cultures. Retinal explants infected with recombinant viral preparations of PlexinA1 (PlexA1), wild-type NgR (wtNgR), NgRL1 chimeric receptor in which the GPI domain has been replaced by the transmembrane region and cytoplasmic tail from the mouse adhesion protein L1 (NgRL1), or NgR carboxy terminal deletion mutant (NgRΔCT) for 12 hr. Following infection, the cells were treated for 30 min with 0, 50, 250, or 500 nM GST-hNogo-A (1055-1120) (GrandPre et al., Nature 403: 439-444, 2000), fixed with 4% paraformaldehyde with 0.1 M PO4 and 20% sucrose, and stained with phalloidin. […] Cells infected with NgRΔCT were insensitive to GST-hNogo-A (1055-1120). The CT region of NgR is therefore required for effective NgR inhibitory signaling.
To test the signaling capability of NgRLI, recombinant HSVL1NgR preparations were produced and used to infect E7 RGCs. Infected RGCs were treated with GST-hNogo-A (1055-1120) and growth cone collapse was assessed (FIG. 20). […] Because the intracellular signals induced by Nogo have not been elucidated, it remains to be determined if ligand binding effects signaling events at caveolar microdomains.

[3] = system: chick E7 retinal ganglion cells; experiment: Growth cone collapse in uninfected chick E7 retinal ganglion cells; details: neurons lacking the Nogo-66 receptor
Description: Both dorsal root ganglion and retinal neurons from E7 chick embryos were examined. The Nogo responses in the dorsal root ganglion neurons from this developmental stage are weak but slight responses can be detected in some cultures (data not shown).
For some receptor systems, such soluble receptor ligand complexes can block signaling by creating an ineffective interaction. For example, the soluble ectodomain of Trk serves to block neurotrophin signaling and has been extensively used for this purpose (Shelton et al., (1995) J. Neurosci. 15, 477-491). Alternatively, the Nogo-66/NgR-ecto soluble complex may bind to and stimulate the presumed second transmembrane NgR subunit. There is precedence for this type of effect from studies of GDNF family receptors (Cacalano et al., (1998) Neuron 21, 53-62).

T1 sequence (Q99PI8+P11627 fused, change not shown): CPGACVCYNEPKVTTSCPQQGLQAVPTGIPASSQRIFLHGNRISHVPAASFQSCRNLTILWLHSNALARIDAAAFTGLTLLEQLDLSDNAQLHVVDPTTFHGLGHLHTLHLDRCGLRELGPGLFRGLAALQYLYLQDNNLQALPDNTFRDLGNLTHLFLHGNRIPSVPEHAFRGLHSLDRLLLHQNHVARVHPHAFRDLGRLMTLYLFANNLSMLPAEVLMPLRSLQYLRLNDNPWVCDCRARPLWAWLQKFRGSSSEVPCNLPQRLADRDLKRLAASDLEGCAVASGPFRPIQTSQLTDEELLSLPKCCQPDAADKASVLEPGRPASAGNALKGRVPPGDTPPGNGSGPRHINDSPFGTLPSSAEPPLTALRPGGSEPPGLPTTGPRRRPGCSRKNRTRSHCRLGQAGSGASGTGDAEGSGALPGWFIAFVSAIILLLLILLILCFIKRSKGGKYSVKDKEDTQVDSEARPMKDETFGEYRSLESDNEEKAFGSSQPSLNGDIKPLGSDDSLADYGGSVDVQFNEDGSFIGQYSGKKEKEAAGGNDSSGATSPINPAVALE

Molecule | blockade of CNS myelin induced growth cone collapse (in words) ([1]; high doses / higher concentrations of CNS myelin) | blockade of CNS myelin induced growth cone collapse (in words) ([1]; low dose / lowest concentrations of CNS myelin) | axonal outgrowth (in words) ([2]; bound to substrate surfaces) | axon outgrowth (in words) ([2]; soluble, nM concentrations) | growth cone collapse response (in words) (NgRL1 chimeric receptor; 50 nM GST-hNogo-A (1055-1120)) | growth cone collapse response (in words) (NgRL1 chimeric receptor; high concentrations of GST-hNogo-A (1055-1120)) | growth cone collapse (in words) [3]
Peptide 140: synthetic peptide of amino acids #1055-1094 of the human NogoA protein, acetylated and amidated at the termini (Ac-RIYKGVIQAIQKSDEGHPFRAYLESEVAISEELVQKYSNS-NH2; UniProt Q9NQC3 1055-1094, looked up, fragment) | had no effect on inhibitory activity | reduces myelin induced growth cone collapse to control levels | – | – | – | – | –
GST-Nogo: GST fusion protein of the 66 amino acid lumenal-extracellular fragment of Nogo-A, expressed in E. coli (protein, also: GST fusion protein, GST fusion protein of the 66 amino acid lumenal-extracellular fragment of Nogo-A, expressed in E. coli) RIYKGVIQAIQKSDEGHPFRAYLESEVAISEELVQKYSNSALGHVNCTIKELRRLFLVDDLVDSLK | – | – | reduced to undetectable levels | blocked | not responsive | transduces Nogo signals as efficiently as wtNgR | uniformly insensitive
